How the values were obtained:
Format in all cases: biochemical, human
Details in all cases: other: HN-241 4-O-sulfation
[1] = substrate: CCN1C(=O)c2cccc3c(O)ccc(c23)C1=O; assay: Enzymatic kinetics of hSULT1A3-catalyzed HN-241 4-O-sulfation
Method: (§1) The enzymatic kinetic parameters of hSULT1As-catalyzed HN-241 4-O-sulfation were measured by incubating increasing concentrations of HN-241 with each of the hSULT1As for a certain period. The fitting equations included Equation (2), the Michaelis–Menten equation, and Equation (3) for enzyme kinetics with substrate inhibition. Related kinetic parameters were fitted by GraphPad Prism 8.0 (San Diego, CA, USA). (2) V=Vmax × [S]/Km+[S] (3) V=Vmax × [S]/Km+[S](1+[S]/Ki)
(§2) [S] refers to the concentration of HN-241, Vmax is the maximum rate of hSULT1As-catalyzed HN-241 4-O-sulfation, Km is the substrate concentration at the half Vmax, and Ki represents the dissociation constant for the binding of the substrate to the inhibitory site.

[2] = substrate: CCN1C(=O)c2cccc3c(O)ccc(c23)C1=O; assay: Enzymatic kinetics of hSULT1A1-catalyzed HN-241 4-O-sulfation
Method: as §1, §2

[3] = substrate: CCN1C(=O)c2cccc3c(O)ccc(c23)C1=O; assay: Enzymatic kinetics of hSULT1A2-catalyzed HN-241 4-O-sulfation
Method: as §1, §2

B1: hSULT1A3 (Homo sapiens) (protein)
chain: MELIQDTSRPPLEYVKGVPLIKYFAEALGPLQSFQARPDDLLINTYPKSGTTWVSQILDMIYQGGDLEKCNRAPIYVRVPFLEVNDPGEPSGLETLKDTPPPRLIKSHLPLALLPQTLLDQKVKVVYVARNPKDVAVSYYHFHRMEKAHPEPGTWDSFLEKFMAGEVSYGSWYQHVQEWWELSRTHPVLYLFYEDMKENPKREIQKILEFVGRSLPEETMDFMVQHTSFKEMKKNPMTNYTTVPQELMDHSISPFMRKGMAGDWKTTFTVAQNERFDADYAEKMAGCSLSFRSEL
notes: 6-histidine tag (N); TEV site (N); made in house; host or cells: Escherichia coli BL21 (DE3), pET29a(+)
[1]
  Km: 12.90 ± 1.16 µM
  Vmax: 0.00881 µmol/min/mg
  Vmax/Km: 683 µL/min/mg

B2: hSULT1A1 (Homo sapiens) (protein)
chain: MELIQDTSRPPLEYVKGVPLIKYFAEALGPLQSFQARPDDLLISTYPKSGTTWVSQILDMIYQGGDLEKCHRAPIFMRVPFLEFKAPGIPSGMETLKDTPAPRLLKTHLPLALLPQTLLDQKVKVVYVARNAKDVAVSYYHFYHMAKVHPEPGTWDSFLEKFMVGEVSYGSWYQHVQEWWELSRTHPVLYLFYEDMKENPKREIQKILEFVGRSLPEETVDFVVQHTSFKEMKKNPMTNYTTVPQEFMDHSISPFMRKGMAGDWKTTFTVAQNERFDADYAEKMAGCSLSFRSEL
notes: as for B1
[2]
  Km: 0.91 ± 0.24 µM
  Vmax: 0.0221 ± 0.00443 µmol/min/mg
  Vmax/Km: 24300 µL/min/mg

B3: hSULT1A2 (Homo sapiens) (protein)
chain: MELIQDISRPPLEYVKGVPLIKYFAEALGPLQSFQARPDDLLISTYPKSGTTWVSQILDMIYQGGDLEKCHRAPIFMRVPFLEFKVPGIPSGMETLKNTPAPRLLKTHLPLALLPQTLLDQKVKVVYVARNAKDVAVSYYHFYHMAKVYPHPGTWESFLEKFMAGEVSYGSWYQHVQEWWELSRTHPVLYLFYEDMKENPKREIQKILEFVGRSLPEETVDLMVEHTSFKEMKKNPMTNYTTVRREFMDHSISPFMRKGMAGDWKTTFTVAQNERFDADYAKKMAGCSLSFRSEL
notes: as for B1
[3]
  Km: 4.47 ± 0.20 µM
  Vmax: 0.00644 µmol/min/mg
  Vmax/Km: 1440 µL/min/mg

— PMC11202169, “A Novel Fluorescence-Based Microplate Assay for High-Throughput Screening of hSULT1As Inhibitors” (Biosensors, 2024)
